Experimental data from article PMC8089094, “Mispair-bound human MutS–MutL complex triggers DNA incisions and activates mismatch repair” (Cell Research, 2021).

B1: human MutLα (MLH1·PMS2 heterodimer), wild type (complex)
chain 1: MSFVAGVIRRLDETVVNRIAAGEVIQRPANAIKEMIENCLDAKSTSIQVIVKEGGLKLIQIQDNGTGIRKEDLDIVCERFTTSKLQSFEDLASISTYGFRGEALASISHVAHVTITTKTADGKCAYRASYSDGKLKAPPKPCAGNQGTQITVEDLFYNIATRRKALKNPSEEYGKILEVVGRYSVHNAGISFSVKKQGETVADVRTLPNASTVDNIRSIFGNAVSRELIEIGCEDKTLAFKMNGYISNANYSVKKCIFLLFINHRLVESTSLRKAIETVYAAYLPKNTHPFLYLSLEISPQNVDVNVHPTKHEVHFLHEESILERVQQHIESKLLGSNSSRMYFTQTLLPGLAGPSGEMVKSTTSLTSSSTSGSSDKVYAHQMVRTDSREQKLDAFLQPLSKPLSSQPQAIVTEDKTDISSGRARQQDEEMLELPAPAEVAAKNQSLEGDTTKGTSEMSEKRGPTSSNPRKRHREDSDVEMVEDDSRKEMTAACTPRRRIINLTSVLSLQEEINEQGHEVLREMLHNHSFVGCVNPQWALAQHQTKLYLLNTTKLSEELFYQILIYDFANFGVLRLSEPAPLFDLAMLALDSPESGWTEEDGPKEGLAEYIVEFLKKKAEMLADYFSLEIDEEGNLIGLPLLIDNYVPPLEGLPIFILRLATEVNWDEEKECFESLSKECAMFYSIRKQYISEESTLSGQQSEVPGSIPNSWKWTVEHIVYKALRSHILPPKHFTEDGNILQLANLPDLYKVFERC
chain 2: MERAESSSTEPAKAIKPIDRKSVHQICSGQVVLSLSTAVKELVENSLDAGATNIDLKLKDYGVDLIEVSDNGCGVEEENFEGLTLKHHTSKIQEFADLTQVETFGFRGEALSSLCALSDVTISTCHASAKVGTRLMFDHNGKIIQKTPYPRPRGTTVSVQQLFSTLPVRHKEFQRNIKKEYAKMVQVLHAYCIISAGIRVSCTNQLGQGKRQPVVCTGGSPSIKENIGSVFGQKQLQSLIPFVQLPPSDSVCEEYGLSCSDALHNLFYISGFISQCTHGVGRSSTDRQFFFINRRPCDPAKVCRLVNEVYHMYNRHQYPFVVLNISVDSECVDINVTPDKRQILLQEEKLLLAVLKTSLIGMFDSDVNKLNVSQQPLLDVEGNLIKMHAADLEKPMVEKQDQSPSLRTGEEKKDVSISRLREAFSLRHTTENKPHSPKTPEPRRSPLGQKRGMLSSSTSGAISDKGVLRPQKEAVSSSHGPSDPTDRAEVEKDSGHGSTSVDSEGFSIPDTGSHCSSEYAASSPGDRGSQEHVDSQEKAPKTDDSFSDVDCHSNQEDTGCKFRVLPQPTNLATPNTKRFKKEEILSSSDICQKLVNTQDMSASQVDVAVKINKKVVPLDFSMSSLAKRIKQLHHEAQQSEGEQNYRKFRAKICPGENQAAEDELRKEISKTMFAEMEIIGQFNLGFIITKLNEDIFIVDQHATDEKYNFEMLQQHTVLQGQRLIAPQTLNLTAVNEAVLIENLEIFRKNGFDFVIDENAPVTERAKLISLPTSKNWTFGPQDVDELIFMLSDSPGVMCRPSRVKQMFASRACRKSVMIGTALNTSEMKKLITHMGEMDHPWNCPHGRPTMRHIANLGVISQN
notes: MLH1 subunit of human MutLα; PMS2 subunit of human MutLα; also called WT MutLα; source: insect cells, purified to homogeneity

Columns and labels:
LacI = assay: EMSA; conditions: IPTG; EMSA: 10 mM HEPES pH 7.5, 110 mM KCl, 5 mM MgCl2, 1 mM DTT, 200 ug/mL BSA, 1 pmol cold homoduplex, +/- 2 mM ATP, 20 min on ice; sucrose gradient: 10 mM …
[1] = target: T1, human MutSα (MSH2·MSH6 heterodimer), wild type (human, UniProt P43246 1-934; P52701 1-1360); assay: native gel or EMSA; with ATP (2 mM); 0.1 pmol 32P-labeled 100-bp duplex with a G–T mismatch, 2 pmol MutSα or MutLα; more slowly migrating MutSα–MutLα–DNA complex; 10 mM HEPES pH 7.5, 5 mM MgCl2, 1 mM DTT, 110 mM KCl, 20 min on ice; 4% non-denaturing polyacrylamide; conditions: both partners purified
T1 construct: MSH2 subunit of human MutSα; MSH6 subunit of human MutSα; also called WT MutSα; MSH2WT·MSH6WT; source: insect cells, purified to homogeneity
T1 sequence (P43246 whole entry, chain 1 of 2): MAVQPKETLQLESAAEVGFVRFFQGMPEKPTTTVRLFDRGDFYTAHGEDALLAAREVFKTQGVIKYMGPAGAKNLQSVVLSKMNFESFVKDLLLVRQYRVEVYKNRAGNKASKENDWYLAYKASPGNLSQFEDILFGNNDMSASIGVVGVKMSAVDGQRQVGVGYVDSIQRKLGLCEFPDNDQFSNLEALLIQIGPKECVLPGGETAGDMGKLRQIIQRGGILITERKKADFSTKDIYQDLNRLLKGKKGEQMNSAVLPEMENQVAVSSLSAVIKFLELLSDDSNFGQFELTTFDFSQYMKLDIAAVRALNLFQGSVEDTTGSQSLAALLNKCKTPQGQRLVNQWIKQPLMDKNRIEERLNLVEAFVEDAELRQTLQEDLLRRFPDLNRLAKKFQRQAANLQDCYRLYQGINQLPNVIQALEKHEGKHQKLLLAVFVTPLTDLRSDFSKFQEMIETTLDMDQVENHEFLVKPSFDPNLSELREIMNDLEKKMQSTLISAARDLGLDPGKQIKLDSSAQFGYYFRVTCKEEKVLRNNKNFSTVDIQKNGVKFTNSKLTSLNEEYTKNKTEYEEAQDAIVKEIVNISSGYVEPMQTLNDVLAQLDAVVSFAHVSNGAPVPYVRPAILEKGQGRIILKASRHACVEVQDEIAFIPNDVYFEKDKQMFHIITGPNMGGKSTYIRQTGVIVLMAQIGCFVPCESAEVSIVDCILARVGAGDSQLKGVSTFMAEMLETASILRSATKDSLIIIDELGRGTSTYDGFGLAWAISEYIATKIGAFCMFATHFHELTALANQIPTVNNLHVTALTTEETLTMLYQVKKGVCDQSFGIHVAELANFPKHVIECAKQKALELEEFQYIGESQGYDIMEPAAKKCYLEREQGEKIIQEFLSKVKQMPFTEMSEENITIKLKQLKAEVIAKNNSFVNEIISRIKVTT
T1 sequence (P52701 whole entry, chain 2 of 2): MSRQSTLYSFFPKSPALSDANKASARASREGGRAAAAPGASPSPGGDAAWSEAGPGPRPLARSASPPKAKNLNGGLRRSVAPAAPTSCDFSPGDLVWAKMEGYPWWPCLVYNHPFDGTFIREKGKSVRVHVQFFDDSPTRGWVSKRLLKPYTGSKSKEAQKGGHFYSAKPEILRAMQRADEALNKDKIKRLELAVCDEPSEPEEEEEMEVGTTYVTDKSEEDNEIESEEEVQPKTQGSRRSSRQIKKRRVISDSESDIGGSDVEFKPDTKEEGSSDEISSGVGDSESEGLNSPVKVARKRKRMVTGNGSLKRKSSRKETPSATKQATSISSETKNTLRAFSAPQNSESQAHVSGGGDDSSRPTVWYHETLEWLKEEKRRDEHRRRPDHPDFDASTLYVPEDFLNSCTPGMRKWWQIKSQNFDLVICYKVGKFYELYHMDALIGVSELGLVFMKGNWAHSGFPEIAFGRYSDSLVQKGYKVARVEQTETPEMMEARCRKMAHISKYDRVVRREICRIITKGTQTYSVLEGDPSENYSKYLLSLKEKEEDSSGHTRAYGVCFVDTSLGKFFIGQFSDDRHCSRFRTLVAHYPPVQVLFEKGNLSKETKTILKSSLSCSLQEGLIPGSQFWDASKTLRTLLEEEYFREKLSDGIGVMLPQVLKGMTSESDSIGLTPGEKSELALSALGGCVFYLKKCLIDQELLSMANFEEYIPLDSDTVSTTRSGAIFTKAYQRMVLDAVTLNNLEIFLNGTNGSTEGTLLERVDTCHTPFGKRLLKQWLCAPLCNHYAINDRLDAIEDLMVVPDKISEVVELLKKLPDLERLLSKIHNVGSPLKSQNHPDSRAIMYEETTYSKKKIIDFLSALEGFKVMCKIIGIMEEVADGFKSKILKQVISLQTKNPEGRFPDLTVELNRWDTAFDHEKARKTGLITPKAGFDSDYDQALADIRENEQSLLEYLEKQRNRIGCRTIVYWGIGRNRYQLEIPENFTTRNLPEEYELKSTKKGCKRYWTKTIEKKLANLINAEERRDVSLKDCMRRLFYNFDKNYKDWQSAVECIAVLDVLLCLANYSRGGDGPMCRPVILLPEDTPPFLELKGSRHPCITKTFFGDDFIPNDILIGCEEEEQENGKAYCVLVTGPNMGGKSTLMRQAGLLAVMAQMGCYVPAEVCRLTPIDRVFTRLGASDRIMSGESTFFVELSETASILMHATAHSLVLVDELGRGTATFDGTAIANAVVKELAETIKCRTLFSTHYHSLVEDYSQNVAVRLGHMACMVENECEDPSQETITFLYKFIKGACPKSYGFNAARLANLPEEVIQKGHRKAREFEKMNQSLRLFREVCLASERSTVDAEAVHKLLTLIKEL

Molecule	binding signal (% of binding released) (LacI)	stoichiometry N [1]
282-bp G-T heteroduplex with LOS I and LOS II	> 70	–
B1	–	> 1 molecule of MutLα in the MutSα–MutLα complex
